In the supplement of paper PMC11811203:

B1: THAP1; numbered along this chain (parent)
chain: MVQSCSAYGCKNRYDKDKPVSFHKFPLTRPSLCKEWEAAVRRKNFKPTKYSSICSEHFTPDCFKRECNNKLLKENAVPTIFLCTEPHDKKEDLLEPQEQLPPPPLPPPVSQVDAAIGLLMPPLQTPVNLSVFCDHNYTVEDTMHQRKRIHQLEQQVEKLRKKLKTAQQRCRRQERQLEKLKEVVHFQKEKDDVSERGYVILPNDYFEIVEVPA

Variants of: B1
Experiment: THAP1 transcriptional activity (GFP+/GFP- enrichment relative to wild-type constructs) (ratio to WT); higher = more THAP1 activity (PSMB5 reporter activation)
Settings: with PSMB5 promoter-GFP reporter
Procedure, shortened: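 A site-saturation library of human THAP1 (residues 2–213, each changed to all 20 amino acids) was transduced by lentivirus at MOI ~0.3, in duplicate, into THAP1-knockout HEK-293T cells carrying mClover3 knocked in at endogenous PSMB5. After five days, BFP+ cells were sorted into GFP-dim and GFP-bright bins, and variants were counted by Illumina sequencing of genomic DNA amplicons. Activity is the replicate-mean bright/dim read fold change divided by the mean of wild-type synonymous constructs.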

Variant	THAP1 transcriptional activity
D88I	0.371
R148A	0.487
M120C	0.909
M120K	1.37
M120V	1.24
K190E	0.903
K190Y	0.762
K190C	1.06
I116K	0.886
I116S	1.3
L100T	1.6
L100P	1.9
L100Y	0.692
P19V	0.213
P19S	0.78
R13E	0.153
R13T	0.147
D134S	0.277
D134K	0.141
D134E	0.389
M143L	0.725
M143V	1.09
A76V	0.435
A76W	0.386

Variant	THAP1 transcriptional activity
P86T	0.609
D141I	0.309
D141C	0.355
P78N	0.269
S6R	0.223
L129K	1.95
E95M	0.897
E85Y	0.792
E85L	0.328
K162F	0.177
Y8A	0.581
Y8H	0.464
Y8F	0.667
Y8N	0.449
Y8P	0.58
Q187W	0.568
Q187P	0.385
E37T	0.905
L159M	0.541
V211H	1.29
P104W	0.527
P104S	2.12
Y205W	2.45
R175W	0.507

Variant	THAP1 transcriptional activity
N69L	0.301
N69I	0.672
T59D	0.292
P122R	0.328
S31C	0.206
S31Q	0.998
S31T	1.19
S31N	0.574
C133Q	1.27
C133Y	0.913
E74Y	0.453
E74M	0.293
H185L	0.359
H185A	1.58
L152H	0.215
L152S	0.211
Q145P	0.652
Q145R	0.646
Q145V	0.59
C62E	0.143
C62W	0.113
S51G	0.0575
K34L	0.613
K34D	0.207

Variant	THAP1 transcriptional activity
E98H	0.824
E98S	1.19
E98I	1.74
P47F	0.0757
P47T	0.151
P47C	0.229
P47W	0.0629
G9S	0.167
G9I	0.144
G9T	0.132
P126L	0.216
P126Q	0.962
K73N	0.522
K73E	0.261
K73C	0.395
G117L	0.288
G117Y	0.262
T138D	0.306
C10I	0.0687
C10P	0.114
C10D	0.129
E195T	0.674
E195S	1.16
E195D	1.15

Variant	THAP1 transcriptional activity
E195G	1.07
V77G	0.281
F45P	0.114
F45Q	0.128
L201S	0.906
E157R	0.765
E157V	0.835
K49N	0.177
K49W	0.1
N68W	0.089
N68A	0.103
T28S	3.39
Y14F	0.5
H144R	0.709
A114F	0.602
P101Y	1.08
P101C	0.582
N44I	0.118
N44W	0.123
T48G	0.419
G197H	1.76
Q176H	0.546
Q176K	1.54
L71I	1.07

Variant	THAP1 transcriptional activity
R42L	0.104
E207G	0.488
E207Y	1.02
K43R	0.716
K43L	0.454
H23W	0.0807
H23L	0.0839
C170E	0.194
C170D	0.173
K11N	0.629
K11E	0.121
R172I	0.34
H135W	0.177
I80T	0.298
I80M	0.484
I80R	0.963
I80Q	0.628
C67Y	0.2
K164I	0.252
F25E	0.148
V209L	0.773
V209K	0.98
T125Y	0.322
E91M	0.596

Variant	THAP1 transcriptional activity
E91W	0.619
R196W	0.521
R196D	0.823
R196H	1.21
E56F	0.363
E56Q	0.873
T79D	0.228
D192G	1.19
L27K	0.111
L27E	0.0928
L27T	0.31
K158G	0.542
K158P	0.175
K158H	0.822
I53Y	0.141
K16M	0.105
K16N	0.0777
K16Q	0.164
K16S	0.191
K46Y	0.335
K46N	0.295
K46F	0.339
K46W	0.148
C33L	0.708

Variant	THAP1 transcriptional activity
C33S	0.242
R146Y	0.539
V199M	0.728
P108G	1.24
V2D	0.178
V2S	0.297
V2M	0.183
D15F	0.272
D15Y	0.172
C54S	0.154
C54H	0.0812
Y198C	0.806
P102H	1.04
P102G	2.33
P102T	0.743
C83G	1.18
C83S	1.05
L119Y	0.443
Q124D	0.637
I200K	0.283
H87E	2.22
H87A	1.39
D204L	1.04
D204P	0.777

Variant	THAP1 transcriptional activity
D204I	0.437
P96Q	0.834
P96L	1.58
A115V	0.454
A115C	0.428
V131T	0.276
F22R	0.0771
F22I	0.178
F22K	0.0858
A39Q	0.502
A38N	1.08
A38W	0.234
K90M	1.03
K90I	1.52
K90Q	2.35
E210T	1.08
P121Y	0.185
N75I	0.302
N75M	0.658
K18W	0.131
K18S	0.384
K18I	0.444
T84L	1.48
T84S	0.852

Variant	THAP1 transcriptional activity
N12M	0.199
V193E	0.835
P212C	0.673
P212Y	1.42
K24G	0.13
K24R	1.73
K24H	0.345
N203H	1.32
V139C	0.724
V139H	0.721
R169D	0.239
R169S	0.262
R169G	0.181
L82C	0.521
L82M	0.668
L82A	1.84
L82S	0.94
K89G	1.41
K89L	1.64
N136H	0.131
N136M	0.134
N136T	0.311
N136V	0.0965
A7Q	0.1

Variant	THAP1 transcriptional activity
A7D	0.0976
L180D	0.256
L180W	0.575
L180A	0.484
L180Q	0.399
K70L	0.121
K70G	0.0856
Y137C	0.147
Y137G	0.161
F63E	0.0925
F63N	0.14
F63R	0.084
F132Y	0.392
F132S	0.452
L32W	0.161
L32E	0.135
A166H	0.35
A166G	0.258
N128E	0.856
T165W	0.39
T165L	0.668
T165F	0.262
K161A	0.3
D113G	0.816

Variant	THAP1 transcriptional activity
D113A	0.667
E66N	2.46
E66I	0.457
E66M	0.558
K64R	1.06
K64A	0.0797
K64Y	0.0778
H57L	0.107
H57C	0.196
H57D	0.0578
H57W	0.0852
H57S	0.121
F206N	0.873
F206S	1.09
D17K	1.31
D17E	0.889
D17M	1.14
D17L	0.861
V184D	1.11
E153W	0.268
W36S	0.197
W36G	0.0718
F58Y	0.153
F58H	0.131

Variant	THAP1 transcriptional activity
F58C	0.0689
V40H	0.17
Q168S	0.477
Q168E	0.498
Q168T	0.711
F81M	0.341
F81Y	0.214
V109T	1.18
V109K	2.39
V109D	2.07
P103D	1.44
S4T	0.966
S4M	0.201
K147W	0.458
K147R	0.9
K147T	0.664
P106T	1.33
Q151L	0.804
Q151T	0.796
L118A	0.723
P107N	0.608
P107K	1.6
S130G	0.946
S130M	0.164

Variant	THAP1 transcriptional activity
S130V	0.196
S130H	0.517
E178N	0.394
E178H	0.957
E178Y	0.632
E178P	0.226
E140G	2.94
E140T	1.57
K179I	0.633
K179L	0.546
K179M	0.465
D61A	0.309
D61Y	0.127
D61I	0.133
P202C	0.722
P202D	0.802
V183Y	0.941
V183F	0.721
A213H	0.644
V156M	0.475
Q167L	0.245
T142P	0.997
